# US20160376333A1 (University of Washington, published 2016)
# T1: human Bcl-B a.a. 11-175 with C-terminal avi-6his tag (human)
# T1 construct: also called BCL2L10
# T1 chain: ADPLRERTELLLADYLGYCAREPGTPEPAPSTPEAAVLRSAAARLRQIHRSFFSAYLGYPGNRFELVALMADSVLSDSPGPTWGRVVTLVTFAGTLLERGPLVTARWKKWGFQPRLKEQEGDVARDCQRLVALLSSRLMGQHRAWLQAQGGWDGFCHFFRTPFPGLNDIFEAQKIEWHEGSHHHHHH
# T2: human Bcl-w a.a. 1-182 with C-terminal avi-6his tag (human, UniProt Q92843 1-182)
# T2 construct: range 1-182; also called BCL2L2
# T2 sequence: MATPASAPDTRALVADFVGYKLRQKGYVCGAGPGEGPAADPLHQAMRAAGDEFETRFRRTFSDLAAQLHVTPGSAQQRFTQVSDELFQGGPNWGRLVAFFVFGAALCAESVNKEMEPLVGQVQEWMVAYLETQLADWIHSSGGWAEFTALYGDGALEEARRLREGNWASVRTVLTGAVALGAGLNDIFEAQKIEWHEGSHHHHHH
# T3: human Bfl-1 a.a. 1-153 (C4S) with C-terminal avi-6his tag (human)
# T3 construct: also called A1/Bfl-1
# T3 chain: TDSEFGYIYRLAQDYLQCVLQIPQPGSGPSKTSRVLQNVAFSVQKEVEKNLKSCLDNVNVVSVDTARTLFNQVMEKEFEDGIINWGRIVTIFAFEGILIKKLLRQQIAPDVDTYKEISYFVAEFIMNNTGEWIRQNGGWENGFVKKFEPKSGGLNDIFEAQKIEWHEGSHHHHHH
# T4: human Mcl-1 a.a. 172-327 with C-terminal avi-6his tag (human)
# T4 chain: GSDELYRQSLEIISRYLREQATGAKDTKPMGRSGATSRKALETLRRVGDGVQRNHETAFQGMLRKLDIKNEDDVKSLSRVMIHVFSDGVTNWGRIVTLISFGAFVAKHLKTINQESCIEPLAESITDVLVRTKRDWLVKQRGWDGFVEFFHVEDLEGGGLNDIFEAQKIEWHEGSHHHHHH
# T5: Epstein-Barr virus BHRF1 a.a. 1-161 with C-terminal avi-6his tag (Epstein-Barr virus)
# T5 construct: also called EBV BHRF1; BHRF1-biotin
# T5 chain: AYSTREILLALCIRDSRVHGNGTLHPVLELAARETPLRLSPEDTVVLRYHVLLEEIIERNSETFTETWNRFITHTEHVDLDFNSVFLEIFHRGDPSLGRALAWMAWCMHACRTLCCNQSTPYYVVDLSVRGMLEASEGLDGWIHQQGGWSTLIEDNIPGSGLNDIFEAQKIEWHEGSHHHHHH
# How the values were obtained:
# [1] = molecular target: T6, human Bcl-2 a.a. 1-207 with C-terminal avi-6his tag (human, UniProt P10415 2-207); assay: BLI, biotinylated target on streptavidin sensor, range of analyte concentrations
# [2] = molecular target: T1, human Bcl-B a.a. 11-175 with C-terminal …; assay: as above
# [3] = molecular target: T2, human Bcl-w a.a. 1-182 with C-terminal …; assay: as above
# [4] = molecular target: T3, human Bfl-1 a.a. 1-153 (C4S) with …; assay: as above
# [5] = molecular target: T4, human Mcl-1 a.a. 172-327 with …; assay: as above
# [6] = molecular target: T7, human Bcl-XL a.a. 1-205 with C-terminal avi-6his tag (human, UniProt Q07817 2-206); assay: as above
# T7 construct: also called BCL2L1
# Target sequence in this assay (Q07817 other isoform, or with tags, fused parts or gaps limits assumed): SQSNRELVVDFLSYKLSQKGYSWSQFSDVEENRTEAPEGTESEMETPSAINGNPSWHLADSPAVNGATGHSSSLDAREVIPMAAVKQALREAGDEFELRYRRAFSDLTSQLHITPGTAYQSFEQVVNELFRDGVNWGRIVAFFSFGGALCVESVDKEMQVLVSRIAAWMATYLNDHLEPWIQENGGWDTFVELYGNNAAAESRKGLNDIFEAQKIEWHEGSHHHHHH
# [7] = molecular target: T3, human Bfl-1 a.a. 1-153 (C4S) with …; assay: ratio of the KD of the next tightest BCL2 protein to the KD of the target, BLI
# [8] = molecular target: T1, human Bcl-B a.a. 11-175 with C-terminal …; assay: as above
# [9] = molecular target: T6, human Bcl-2 a.a. 1-207 with C-terminal …; assay: initial BLI screening (column 'Binds target?')
# [10] = molecular target: T5, Epstein-Barr virus BHRF1 a.a. 1-161 …; assay: yeast display library, FACS sort at 100 nM BHRF1, deep sequencing
# [11] = molecular target: T5, Epstein-Barr virus BHRF1 a.a. 1-161 …; assay: yeast display library, FACS sort at 400 nM BHRF1, deep sequencing
# [12] = molecular target: T5, Epstein-Barr virus BHRF1 a.a. 1-161 …; assay: yeast surface display
# [13] = molecular target: T3, human Bfl-1 a.a. 1-153 (C4S) with …; assay: yeast surface display titration (apparent KD)
# [14] = molecular target: T4, human Mcl-1 a.a. 172-327 with …; assay: yeast surface display titration (apparent KD)
# [15] = molecular target: T6, human Bcl-2 a.a. 1-207 with C-terminal …; assay: yeast surface display titration (apparent KD)
# [16] = molecular target: T2, human Bcl-w a.a. 1-182 with C-terminal …; assay: yeast surface display titration (apparent KD)
# [17] = molecular target: T7, human Bcl-XL a.a. 1-205 with C-terminal …; assay: yeast surface display titration (apparent KD)
# [18] = molecular target: T6, human Bcl-2 a.a. 1-207 with C-terminal …; assay: BLI at a single analyte concentration (50 nM, 600 s association, then buffer); biotinylated BCL2 protein on a streptavidin sensor
# [19] = molecular target: T2, human Bcl-w a.a. 1-182 with C-terminal …; assay: as above
# [20] = molecular target: T4, human Mcl-1 a.a. 172-327 with …; assay: as above
# [21] = molecular target: T7, human Bcl-XL a.a. 1-205 with C-terminal …; assay: as above
binder,measurement,setting,value
"FINDI (designed binder, also called αBFL1) ADPKKVLDKAKDQAENRVRELKQKLEELYKEARKLDLTQEKRKKLEVATLGAVLAAHGDILNAIMQAKEEADKLKKAGLVNSQQLDELKRRLEELKEEALRKASDYGNEFHLKRRY",Kd,[1],321 nM
same,Kd,[2],31 µM
same,Kd,[3],7.4 µM
same,Kd,[4],0.91 nM
same,Kd,[5],1700 nM
same,Kd,[6],900 nM
same,Specificity,[7],350 fold
"10-INDI (designed binder, also called αBCLB) ADPKKILDKAKDQVENRVRELKQELERLYKEARKLDLTQEMRRKLHVRYIEAMLKAIAAIMNAIAQAENEADKLKKAGLVNSQQLDELRRRLEELTEEAAQKAHDYGRELQLKLEY",Specificity,[8],1010 fold
2-CDP07 (designed binder) ADPKKVLDKAKDDAENRVRELKQKLEELYKEARKLDLTQEERDELKLKAIAASLQASGDIYNAILRALEEARKLKKAGLVNSQQLDELKRRLEELAEEAQRKANKLGDEFRLKLEY,binding result,[9],binds
Index 47 (designed binder) GWSADWIKDQAKELMLRAAEEMKKRADEEEKKFKYKQFTTEFLTKATMRWIALALMAIGDVFNVLMWALEWAKRMAKLNQYRKEELEKAKEEAKKLAEKAARRITEIGREAEQKALKG,Log2 enrichment ratio,[10],-3.13 log2
same,Log2 enrichment ratio,[11],-2.79 log2
same,binding result,[12],no binding
BbpD04.3 (designed binder) ADWKKVLDKAKDIAENRVRELKQKLEEFYKEAMKLDLTQEMRRKLMLRWIAAMLMAIGDIFNAIRQAKQEADKLKKAGLVNSQQLDELKRRLEELKEEASRKARDYGREFQLKLEY,Kd,[13],32 nM
same,Kd,[14],19 nM
BbpD04.1 (designed binder) ADWKKVLDKAKDIAENRVREIKQKLEEFYKEAMKLDLTQEMRRKLMLRWIAAMLMAIGDIFNAIRQAKQEADKLKKAGQVNSQLLDELKRRLEELKEEASRKCHDYGREFQLKLEY,Kd,[15],110 nM
same,Kd,[16],14 nM
same,Kd,[14],30 nM
same,Kd,[17],25 nM
"10-CDP01 (designed binder, also called B-CDP01) ADPKKVLDKAKDQAENRVRELKQELERLYKEARKLDLTQEMRRKLEWRYIAAMLKAIGDILNAIAQAENEADKLKKAGLVNSQQLDELRRRLEELAKEAARKAHDYGREFQLKLEY",Kd,[1],14 nM
same,apparent Kd (pooled screen),[2],9 nM
same,Kd,[3],0.9 µM
same,Kd,[4],250 nM
same,Kd,[5],0.47 nM
same,Kd,[6],16 nM
same,Specificity,[8],0.05 fold
F-ECM04 (designed binder) ADPKKVLDKAKDQAENRVRELKQKLEELYKEARKLDLTQEMRKKLEVAALGAVLAAHGDILNAIMQAKEEADKLKKAGLVNSQQLDELKRRLEELKEEALRKASDYGKEFHLKRRYG,Kd,[1],100 nM
same,Kd,[2],4 µM
same,Kd,[3],3.8 µM
same,Kd,[4],1.1 nM
same,Kd,[5],255 nM
same,Kd,[6],540 nM
same,Specificity,[7],91 fold
2-CDP02 (designed binder) ADPKKVLDKAKDRAENAVRELKQKLEELYKEARKLDLTQDMRNKLIMKAIAAELRAIGDIFQAILEAKAEAKKLLDAGLVNSQQFDELKRRLEELEEEAAERARKLGDEFRQKLEYG,binding result,[9],binds
2-CDP03 (designed binder) ADPKKVLDKAKDQAENRVRELKQKLEELYKEARKLDLTQEMRRELKERALAARLQAVGDIFYAILQAKSEADKLKKAGLVNSQQLDELKRRLEELAEEAQRKARDYGIEFALKLEY,binding result,[9],binds
10-ECM01 (designed binder) ADPKKILDKAKDQVENRVRELKQELERLYKEARKLDLTQEMRRKLHVRYIAAMLKAIAAILNAIAQAENEADKLKKAGLVNSQQLDELRRRLEELTEEAAQKAHDYGREFQLKLEYG,Kd,[1],12500 nM
same,Kd,[2],0.077 µM
same,Kd,[3],19 µM
same,Kd,[4],2380 nM
same,Kd,[5],3650 nM
same,Kd,[6],7800 nM
same,Specificity,[8],31 fold
Index 15 (designed binder) GNDRDQIEEYHRERMDEELDRAKKRLEELKKLWEKLDGDDLMKFFWTFKWIAESLKIIGDLFNRLLRTWEFAEALKKGIGFDEKKAEEAKERAYERAAEAAWKAAKLSREMREFLLKG,Log2 enrichment ratio,[10],-2.77 log2
same,Log2 enrichment ratio,[11],-0.71 log2
same,binding result,[12],no binding
M-CDP02 (designed binder) ADPKKVLDKAKDQAENRVRELKQELEELYKEARKLDLTQEERRKLEESYIAAMLRAIGDIFNAIMQAKNEADKLKKAGLVNSQQLDELRRRLEELRKEASLKAEDYGREFQEKLEY,binding result,[18],binds
same,binding result,[19],binds
same,binding result,[20],binds
same,binding result,[21],binds
Index 67 (designed binder) GNRSEEVKELMRELAERVLLKFRWRADEMNKEKDKKYDKEELKRELTEKWIAFALDAIGDLFNAAELAKKLADLFKKGTGFLEERLERRKEEIEKLEEKGSRKVSYEGRREAEKIESG,Log2 enrichment ratio,[10],-3.48 log2
same,Log2 enrichment ratio,[11],-3.44 log2
same,binding result,[12],no binding
F-CDP01 (designed binder) ADPKKVLDKAKDQAENRVRELKQKLEELYKEARKLDLTQEMRKKLQYAAIGAMLAAIGDILNAIMQAKQEADKLKKAGLVNSQQLDELKRRLEELKEEALRKAHDYGSEFYLKLEY,Kd,[1],20 nM
same,Kd,[2],210 µM
same,Kd,[3],0.59 µM
same,apparent Kd (pooled screen),[4],2.6 nM
same,Kd,[5],4.6 nM
same,Kd,[6],9 nM
same,Specificity,[7],1.8 fold
